Assay results taken from publication PMC2063703 (The Journal of Cell Biology, 2006).

B2: Vps4^E233Q (enzyme)
chain: MSTGDFLTKGIELVQKAIDLDTATQYEEAYTAYYNGLDYLMLALKYEKNPKSKDLIRAKFTEYLNRAEQLKKHLESEEANAAKKSPSAGSGSNGGNKKISQEEGEDNGGEDNKKLRGALSSAILSEKPNVKWEDVAGLEGAKEALKEAVILPVKFPHLFKGNRKPTSGILLYGPPGTGKSYLAKAVATEANSTFFSVSSSDLVSKWMGESEKLVKQLFAMARENKPSIIFIDQVDALTGTRGEGESEASRRIKTELLVQMNGVGNDSQGVLVLGATNIPWQLDSAIRRRFERRIYIPLPDLAARTTMFEINVGDTPCVLTKEDYRTLGAMTEGYSGSDIAVVVKDALMQPIRKIQSATHFKDVSTEDDETRKLTPCSPGDDGAIEMSWTDIEADELKEPDLTIKDFLKAIKSTRPTVNEDDLLKQEQFTRDFGQEGN
B9: Vta1 (purified recombinant, bacterially expressed) (natural protein)
chain: MASNAARVVATAKDFDKVGLGIIGYYLQLYAVELILSEEDRSQEMTALATELLDTIEAFKKEIGGESEAEDSDKSLHVMNTLIHDQEKAKIYMLNFTMSLYNEKLKQLKDGPWDVMLKRSLWCCIDLFSCILHLWKENISETSTNSLQKRIKYCKIYLSKLAKGEIGSSDEKTLDYADFADDSEEIKDEDVDHQTSDLENNNNDKVEGLAPKDQTTSYEPVDEVPEFIDDADSVNEEEQTVDKNEDAITKDEQQVVKKEVDLTRPSAPSEPAAAEHKSYTKDELTKIMDRASKIEQIQKLAKYAISALNYEDLPTAKDELTKALDLLNSI

Key:
[1] = molecular target: Vps4 (yeast) (UniProt P52917)
[2] = molecular target: the molecule itself; assay: SEC
[3] = molecular target: B9; assay: SEC
[4] = molecular target: B2; assay: pull-down
[5] = molecular target: the molecule itself; assay: AUC
[6] = molecular target: B2; assay: SEC

B1: Vps4 (enzyme)
chain: MSTGDFLTKGIELVQKAIDLDTATQYEEAYTAYYNGLDYLMLALKYEKNPKSKDLIRAKFTEYLNRAEQLKKHLESEEANAAKKSPSAGSGSNGGNKKISQEEGEDNGGEDNKKLRGALSSAILSEKPNVKWEDVAGLEGAKEALKEAVILPVKFPHLFKGNRKPTSGILLYGPPGTGKSYLAKAVATEANSTFFSVSSSDLVSKWMGESEKLVKQLFAMARENKPSIIFIDEVDALTGTRGEGESEASRRIKTELLVQMNGVGNDSQGVLVLGATNIPWQLDSAIRRRFERRIYIPLPDLAARTTMFEINVGDTPCVLTKEDYRTLGAMTEGYSGSDIAVVVKDALMQPIRKIQSATHFKDVSTEDDETRKLTPCSPGDDGAIEMSWTDIEADELKEPDLTIKDFLKAIKSTRPTVNEDDLLKQEQFTRDFGQEGN
- Km of the Vps4 protein concentration-dependent ATPase activity, with 1 μM Vta1 [1]: 118 nM
- Km of the Vps4 protein concentration-dependent ATPase activity, with 6 μM Vta1 [1]: 69 nM
- Km of the Vps4 protein concentration-dependent ATPase activity, without Vta1 [1]: 1.1 µM

Binder: B2
- stoichiometry N [2]: 2
- stoichiometry N [3]: ~1

Binder: RASKIEQIQKLAKYAISALNYEDLPTAKDELTKALDLLNSI (domain or fragment) [GST-VSL^Vta1]
- binding result [4]: binds

B3: GST-Vta1^Δ37–68 (natural protein)
chain: MASNAARVVATAKDFDKVGLGIIGYYLQLYAVELILAEDSDKSLHVMNTLIHDQEKAKIYMLNFTMSLYNEKLKQLKDGPWDVMLKRSLWCCIDLFSCILHLWKENISETSTNSLQKRIKYCKIYLSKLAKGEIGSSDEKTLDYADFADDSEEIKDEDVDHQTSDLENNNNDKVEGLAPKDQTTSYEPVDEVPEFIDDADSVNEEEQTVDKNEDAITKDEQQVVKKEVDLTRPSAPSEPAAAEHKSYTKDELTKIMDRASKIEQIQKLAKYAISALNYEDLPTAKDELTKALDLLNSI
- binding result [4]: binds

B4: GST-Vta1^ΔN68 (domain or fragment)
chain: AEDSDKSLHVMNTLIHDQEKAKIYMLNFTMSLYNEKLKQLKDGPWDVMLKRSLWCCIDLFSCILHLWKENISETSTNSLQKRIKYCKIYLSKLAKGEIGSSDEKTLDYADFADDSEEIKDEDVDHQTSDLENNNNDKVEGLAPKDQTTSYEPVDEVPEFIDDADSVNEEEQTVDKNEDAITKDEQQVVKKEVDLTRPSAPSEPAAAEHKSYTKDELTKIMDRASKIEQIQKLAKYAISALNYEDLPTAKDELTKALDLLNSI
- binding result [4]: binds

Binder: EDFARAQKYCKYAGSALQYEDVSTAVQNLQKALKLLTTGRE (domain or fragment) [GST-VSL^SBP1]
- binding result [4]: binds

B5: GST-Vta1 (natural protein)
chain: MASNAARVVATAKDFDKVGLGIIGYYLQLYAVELILSEEDRSQEMTALATELLDTIEAFKKEIGGESEAEDSDKSLHVMNTLIHDQEKAKIYMLNFTMSLYNEKLKQLKDGPWDVMLKRSLWCCIDLFSCILHLWKENISETSTNSLQKRIKYCKIYLSKLAKGEIGSSDEKTLDYADFADDSEEIKDEDVDHQTSDLENNNNDKVEGLAPKDQTTSYEPVDEVPEFIDDADSVNEEEQTVDKNEDAITKDEQQVVKKEVDLTRPSAPSEPAAAEHKSYTKDELTKIMDRASKIEQIQKLAKYAISALNYEDLPTAKDELTKALDLLNSI
- binding result [4]: binds

B6: His6-Vta1 (natural protein)
chain: MASNAARVVATAKDFDKVGLGIIGYYLQLYAVELILSEEDRSQEMTALATELLDTIEAFKKEIGGESEAEDSDKSLHVMNTLIHDQEKAKIYMLNFTMSLYNEKLKQLKDGPWDVMLKRSLWCCIDLFSCILHLWKENISETSTNSLQKRIKYCKIYLSKLAKGEIGSSDEKTLDYADFADDSEEIKDEDVDHQTSDLENNNNDKVEGLAPKDQTTSYEPVDEVPEFIDDADSVNEEEQTVDKNEDAITKDEQQVVKKEVDLTRPSAPSEPAAAEHKSYTKDELTKIMDRASKIEQIQKLAKYAISALNYEDLPTAKDELTKALDLLNSI
- stoichiometry N [5]: 2

B7: GST-Vta1^K322A (natural protein)
chain: MASNAARVVATAKDFDKVGLGIIGYYLQLYAVELILSEEDRSQEMTALATELLDTIEAFKKEIGGESEAEDSDKSLHVMNTLIHDQEKAKIYMLNFTMSLYNEKLKQLKDGPWDVMLKRSLWCCIDLFSCILHLWKENISETSTNSLQKRIKYCKIYLSKLAKGEIGSSDEKTLDYADFADDSEEIKDEDVDHQTSDLENNNNDKVEGLAPKDQTTSYEPVDEVPEFIDDADSVNEEEQTVDKNEDAITKDEQQVVKKEVDLTRPSAPSEPAAAEHKSYTKDELTKIMDRASKIEQIQKLAKYAISALNYEDLPTAKDELTAALDLLNSI
- binding result [4]: binds

B8: GST-Vta1^S306A (natural protein)
chain: MASNAARVVATAKDFDKVGLGIIGYYLQLYAVELILSEEDRSQEMTALATELLDTIEAFKKEIGGESEAEDSDKSLHVMNTLIHDQEKAKIYMLNFTMSLYNEKLKQLKDGPWDVMLKRSLWCCIDLFSCILHLWKENISETSTNSLQKRIKYCKIYLSKLAKGEIGSSDEKTLDYADFADDSEEIKDEDVDHQTSDLENNNNDKVEGLAPKDQTTSYEPVDEVPEFIDDADSVNEEEQTVDKNEDAITKDEQQVVKKEVDLTRPSAPSEPAAAEHKSYTKDELTKIMDRASKIEQIQKLAKYAIAALNYEDLPTAKDELTKALDLLNSI
- binding result [4]: binds

Binder: B9
- binding result [6]: binds

B10: GST-SBP1 (natural protein)
chain: MAALAPLPPLPAQFKSIQHHLRTAQEHDKRDPVVAYYCRLYAMQTGMKIDSKTPECRKFLSKLMDQLEALKKQLGDNEAITQEIVGCAHLENYALKMFLYADNEDRAGRFHKNMIKSFYTASLLIDVITVFGELTDENVKHRKYARWKATYIHNCLKNGETPQAGPVGIEEDNDIEENEDAGAASLPTQPTQPSSSSTYDPSNMPSGNYTGIQIPPGAHAPANTPAEVPHSTGVASNTIQPTPQTIPAIDPALFNTISQGDVRLTPEDFARAQKYCKYAGSALQYEDVSTAVQNLQKALKLLTTGRE
- binding result [4]: binds
